# Laboratory results: US20060269536
# Experiments:
# [1] = system: substrate pentapeptide ER↓VSP
# [2] = system: substrate pentapeptide KLR↓TT
# [3] = system: substrate pentapeptide LR↓SRA
# [4] = system: substrate pentapeptide MTR↓SN
# [5] = system: substrate pentapeptide RGR↓SE
# [6] = system: substrate pentapeptide RR↓SID
substance,measurement,setting,value
human glandular kallikrein hK2,substrate phage display: peptide selected as cleaved by hK2 (scissile bond ↓),[1],ER↓VSP
same,substrate phage display: peptide selected as cleaved by hK2 (scissile bond ↓),[2],KLR↓TT
same,substrate phage display: peptide selected as cleaved by hK2 (scissile bond ↓),[3],LR↓SRA
same,substrate phage display: peptide selected as cleaved by hK2 (scissile bond ↓),[4],MTR↓SN
same,substrate phage display: peptide selected as cleaved by hK2 (scissile bond ↓),[5],RGR↓SE
same,substrate phage display: peptide selected as cleaved by hK2 (scissile bond ↓),[6],RR↓SID
